According to patent US9952227B2, “Method for detecting bilirubin” (Research Foundation of the City University of New York, priority 2015, dated 2018):
Several values for one entry are separate records, joined by “and”; a condition that tells them apart may be missing. Equal values may be shown once. Read-outs that look alike come from different tables or passages of the source.

B1: Chlopsid FP I: bilirubin-inducible fluorescent fatty acid-binding protein from Kaupichthys hyoproroides, SEQ ID NO: 1 (protein)
chain: MFEDFLGTWKCIDSQNFGAYLAAIGAPPVLSERADATRPTVHFNRDGDKLSLKVEHGPPPLKDVLLSFKLGEEFDEHPTDGRKCKTLVTFEGDKLLYLQKWDGKETVVVREIRDGNVVATLSHEGVVALRVYKKVAGPTALE
modifications: Kaupichthys hyoproroides
B2: UnaG: bilirubin inducible fluorescent protein from Anguilla japonica, novel member of the FABP family (protein, UniProt P0DM59 1-139, looked up)
Bilirubin-inducible …: MVEKFVGTWKIADSHNFGEYLKAIGAPKELSDGGDATTPTLYISQKDGDKMTVKIENGPPTFLDTQVKFKLGEEFDEFPSDRRKGVKSVVNLVGEKLVYVQKWDGKETTYVREIKDGKLVVTLTMGDVVAVRSYRRATE
B3: Chlopsid FP II: bilirubin-inducible fluorescent fatty acid-binding protein from Kaupichthys n. sp., SEQ ID NO: 2 (protein)
chain: MFEDFLGTWECIDSQNFGAYLAAVGAPPVLSDRADATRPTVYFNRDGDKLSLKVEHGPPPLKDVILSFKLGEEFDEHPTDGRKCKTLVTFEGDKLLYLQKWDGKETVVVREIRDGNVVATLSHEGVVALRVYKKVAGPTA
modifications: Kaupichthys hyoproroides

What was measured:
[1] = Fluorescence excitation and emission spectra; assay type: physicochemical
Description: In Chlopsid FP I and Chlopsid FP II this amino acid is a histidine. This difference in amino acid sequence can potentially explain the fluorescence shift, due to an increase in the π conjugation of the system.
Fluorescence Spectroscopy: Fluorescence excitation and emission spectra were recorded using a F-7000 Hitachi Fluorescence Spectrometer.

[2] = Fluorescence quantum yield; assay type: physicochemical
Description: The fluorescence quantum yield of Chlopsid FP I was determined to be 0.47. […] These values are close to the reported quantum yield for UnaG of 0.51 (Table 1). Two prolines in the Gly-Pro-Pro sequence motif were mutated to glycine.

[3] = system: HEK293 cells; test: Expression of Chlopsid FP I in HEK293 cells, single and two-photon imaging; assay type: cell-based
Description: Expression in Mammalian Cells: Chlopsid FP I was expressed in mammalian cells (HEK293) without the addition of bilirubin. […] The two-photon excitation was fairly flat from 700-1000 nm with a peak at 860 nm and an unusual dip at 840 nm.
Expression of Chlopsid FP I in HEK293 Cells: A pCS2+vector was used for cloning of Chlopsid FP I for expression in HEK293 cells (ATCC, USA) using Kpn-Sphl cloning sites. Plasmids were prepared by Genscript USA, Inc. The expression was driven in HEK293 cells (ATCC, USA) by CMV promotor. The HEK293 cell line was maintained in Dulbecco's Modified Eagle Medium (High Glucose) (DMEM) (Invitrogen, USA), supplemented with 10% fetal bovine serum (FBS) (Sigma-Aldrich, USA), in a 37° C. incubator with 5% CO2. Transient transfection was performed using 2 μg of DNA per 35 mm dish and 5 μg of Lipofectamine 2000 (Invitrogen, N.Y.). Cells were imaged on a custom-made 2-photon microscope using a Chameleon Ti-Sapphire laser (Coherent Inc, CA) and water immersion 20×/0.95 N.A. objective (Olympus, Japan). Images were taken using 850 nm laser light with power of 15 mW at the objective.

[4] = system: mammalian cells; test: Fluorescence of expressed protein in mammalian cells upon addition of exogenous bilirubin; assay type: cell-based
Excerpt: (§1) Hayashi and Toda reported that Anguilla japonica (heavily farmed in Japanese aquaculture and a historical staple of Japanese cuisine) was weakly green fluorescent. They purified a fluorescent protein from A. japonica muscle tissue and isolated and sequenced several peptide fragments. […] Then in 2013, Kumagai et al., published a full characterization of the fluorescent protein from A. japonica. […] The Kaupichthys hyoproroides and Kaupichthys n. sp. data was re-examined and found a single transcript in each of the two species' transcriptomes that encoded an FABP including the Gly-Pro-Pro insertion. […] These proteins, termed Chlopsid FP I and Chlopsid FP II, are orthologs of UnaG (FIG. 1). FIG. 1 depicts sequence alignment of fluorescent FABPs from eels with a non-fluorscent FABP from Kaupichthys hyoproroides (Chlopsid NFP) and human brain FABP-7. Areas of homology are identified with solid lines boxes. The GPP sequence motif is identified with a dotted lined box.

[5] = system: E. coli; test: Fluorescence of expressed protein in E. coli upon addition of exogenous bilirubin; assay type: cell-based
Excerpt: as §1
Protein Expression and Purification. Candidate ORFs were selected from eel transcriptome data containing an unusual sequence motif (Gly-Pro-Pro) on a loop between two beta sheets in the FABP sequence. […] Protein concentration was determined by A280 measurements, using calculated extinction coefficients of 15,300 M^−1 cm^−1 for Chlopsid FP I, and 16,600 M^−1 cm^−1 for Chlopsid FP II. […]

[6] = reference fluorescent protein; cited from earlier work
[7] = reported value for reference fluorescent protein; cited from earlier work

Row | Molecule | Ex/Em maxima: emission maximum [1] | Ex/Em maxima: excitation maximum [1] | Fluorescence quantum yield [2] | Two-photon excitation dip ([3]; HEK293) | Two-photon excitation peak ([3]; HEK293, excitation fairly flat from 700-1000 nm) | Fluorescence of expressing cells ([3]; HEK293, without the addition of bilirubin, single and two-photon imaging) | Fluorescence upon addition of exogenous bilirubin [4] | Fluorescence upon addition of exogenous bilirubin [5] | Ex/Em maxima: emission maximum [6] | Ex/Em maxima: excitation maximum [6] | Fluorescence quantum yield [7]
1 | B1 | 527 nm and 524 nm | 498 nm and 490 nm | 0.47 | 840 nm | 860 nm | bright fluorescence | strong green fluorescence | strong green fluorescence |  |  | 
2 | B2 |  |  |  |  |  |  |  |  | 523 nm and 530 nm | 489 nm and 498 nm | 0.51
3 | B3 | 527 nm and 524 nm | 498 nm and 490 nm | 0.37 |  |  |  | strong green fluorescence | strong green fluorescence |  |  | 
